Where no end group is shown, it is not given here.
Experiments:
[1] = target: TCRs of CD8+CD40Ig Tregs (CD8+CD45RClow Tregs from CD40Ig-treated long-term allograft bearing LEW.1A recipients); assay: cell-based or functional assay
[2] = target: TCRs of CD8+CD40Ig Tregs (CD8+CD45RClow Tregs from CD40Ig-treated long-term allograft bearing LEW.1A recipients); assay: PE and APC tetramer double staining, flow cytometry, 10 µg/mL, 1 hour at 4° C.
[3] = target: TCRs of naive splenic CD8+CD45RClow Tregs; assay: as above
[4] = target: TCRs of CD8+CD40Ig Tregs (CD8+CD45RClow Tregs from CD40Ig-treated long-term allograft bearing LEW.1A recipients); assay: BV421 control tetramer staining, flow cytometry, 10 µg/mL

B1: peptide Bu31 (peptide)
peptide: YLRYDSDVGEYRAVTE
CD25 expression at the cell surface of CD8+CD40Ig Tregs after 6 days with matured syngeneic pDCs, fold vs. no peptide [1]: 1.67 fold

B2: MHC class I tetramer RT1.A^a/Bu31-10 (peptide-MHC, part only; not given: MHC heavy chain and b2m, part only)
peptide: YLRYDSDVGEYR
modifications: also: bound in MHC class I RT1.A^a tetramer with streptavidin-PE or -APC
percent of Bu31-specific (tetramer-stained) cells among CD8+CD40Ig Tregs, graft [2]: 1.11% | percent of Bu31-specific (tetramer-stained) cells among CD8+CD40Ig Tregs, spleen [2]: 0.281% | precursor frequency (tetramer-stained cells) in naive splenic CD8+CD45RClow Tregs [3]: 0.187%

B3: control tetramer RT1.A^a/MTF-E (peptide-MHC, part only; not given: MHC heavy chain and b2m, part only)
peptide: ILFPSSERLISNR
modifications: also: bound in MHC class I RT1.A^a tetramer with streptavidin-BV421
percent non-specific staining among Bu31-10-specific cells [4]: 1.6%

From patent US20170173125A1
